Measurements published in the supplement of paper PMC7877785.
± gives the uncertainty stated by the source.

Experiment: self-splicing fitness, log relative to wild type (ln ratio); higher = more splicing; Tetrahymena group I intron in knt gene, E. coli kanamycin selection, DiMSum; sequences stand for … in CUCUCU…GGAGGGAAAAGUUAUCAGGCAUGCACCUGGUAGCUAGUCUUUAAACCAAUAGAUUGCAUCGGUUUAAAAGGCAAGACCGUCAAAUUGCGGGAAAGGGGUCAACAGCCGUUCAGUACCAAGUCUCAGGGGAAACUUUGAGAUGGCCUUGCAAAGGGUAUGGUAAUAAGCUGACGGACAUGGUCCUAACCACGCAGCCAAGUCCUAAGUCAACAGAUCUUCUGUUGAUAUGGAUGCAGUUCACAGACUAAAUGUCGGUCGGGGAAGAUGUAUUCUUCUCAUAAGAUAUAGUCGGACCUCUCCUUAAUGGGAGCUAGCGGAUGAAGUGAUGCAACACUGGAGCCGCUGGGAACUAAUUUGUAUGCGAAAGUAUAUUGAUUAGUUUUGGAGUACUCGUGGUCG
In short: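 Colonies from six replicate transformations of E. coli BL21(DE3) were pooled and amplicon-sequenced on an Illumina HiSeq 2500. The library placed an intron with all eight P1ex-region nucleotides randomised inside the knt kanamycin-resistance gene on pET-22b(+), and cells grew overnight at 37°C or 30°C on LB agar with or without 25 μg/mL kanamycin (plus 100 μg/mL carbenicillin, 50 μM IPTG, 0.2% rhamnose). Fitness is the DiMSum error-weighted combination of wild-type-normalised replicate fold changes, kanamycin versus none.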

Sequence	self-splicing fitness (ln) (30 °C)	self-splicing fitness (ln) (37 °C)
UACCAGCAAUAUUACGCGGA	-1.69 ± 0.079	-1.04 ± 0.082
UACCAGCAAUAUUACGCGUC	-2.06 ± 0.11	-1.13 ± 0.1
UACCAGCAAUAUUACGCUUU	-1.86 ± 0.093	-0.589 ± 0.1
UACCAGCAAUAUUACGGAGA	-1.13 ± 0.07	-0.596 ± 0.073
UACCAGCAAUAUUACGGGAU	-3.25 ± 0.16	-1.53 ± 0.12
UACCAGCAAUAUUACGGGGC	-4.11 ± 0.29	-2.72 ± 0.2
UACCAGCAAUAUUACGGUAU	-3.15 ± 0.16	-2.35 ± 0.18
UACCAGCAAUAUUACGGUCA	-0.0407 ± 0.07	0.125 ± 0.1
UACCAGCAAUAUUACGGUUC	-3.88 ± 0.18	-1.38 ± 0.14
UACCAGCAAUAUUACGUACU	-2.92 ± 0.17	-1.4 ± 0.15
UACCAGCAAUAUUACGUCUG	-3.46 ± 0.13	-2.46 ± 0.12
UACCAGCAAUAUUACGUUAC	-2.83 ± 0.3	-2.26 ± 0.21
UACCAGCAAUAUUACGUUGU	-3.56 ± 0.12	-2.66 ± 0.12
UACGAGCAAUAUUACGAAUC	-4.18 ± 0.34	-2.03 ± 0.39
UACGAGCAAUAUUACGAAUU	-4.2 ± 0.46	-3.21 ± 0.39
UACGAGCAAUAUUACGACAG	-2.49 ± 0.21	-0.615 ± 0.2
UACGAGCAAUAUUACGAGAC	-3.68 ± 0.26	-2.72 ± 0.27
UACGAGCAAUAUUACGAGCG	-1.12 ± 0.13	-0.262 ± 0.14
UACGAGCAAUAUUACGAGGG	-1.82 ± 0.12	-2.11 ± 0.27
UACGAGCAAUAUUACGAUAU	-2.39 ± 0.26	-3.25 ± 0.37
UACGAGCAAUAUUACGAUGA	-2.05 ± 0.19	-2.41 ± 0.2
UACGAGCAAUAUUACGAUUA	-1.13 ± 0.14	-0.74 ± 0.12
UACGAGCAAUAUUACGCAAU	-3.04 ± 0.17	-2.65 ± 0.18
UACGAGCAAUAUUACGCCCG	-3.1 ± 0.18	-2.02 ± 0.17

Sequence	self-splicing fitness (ln) (30 °C)	self-splicing fitness (ln) (37 °C)
UACGAGCAAUAUUACGCGGU	-3.15 ± 0.2	-2.67 ± 0.26
UACGAGCAAUAUUACGCUGC		-2.59 ± 0.41
UACGAGCAAUAUUACGGACA	-3.34 ± 0.26	-1.72 ± 0.17
UACGAGCAAUAUUACGGAGG	-2.06 ± 0.5	
UACGAGCAAUAUUACGGCAA	-1.96 ± 0.24	-0.476 ± 0.18
UACGAGCAAUAUUACGGCGU	-2.83 ± 0.33	-1.73 ± 0.29
UACGAGCAAUAUUACGGCUA	0.411 ± 0.22	0.683 ± 0.23
UACGAGCAAUAUUACGGGCC		-3.34 ± 0.28
UACGAGCAAUAUUACGGGUU	-2.88 ± 0.14	-3.21 ± 0.23
UACGAGCAAUAUUACGGUAA	-1.82 ± 0.37	-0.747 ± 0.28
UACGAGCAAUAUUACGGUUA	-0.815 ± 0.11	0.152 ± 0.11
UACGAGCAAUAUUACGUAAC	-4.91 ± 0.41	-3.7 ± 0.3
UACGAGCAAUAUUACGUAGC	-3.67 ± 0.46	-1.01 ± 0.21
UACGAGCAAUAUUACGUCCA	-2.8 ± 0.27	-1.69 ± 0.27
UACGAGCAAUAUUACGUCCG	-2.29 ± 0.13	-1.25 ± 0.17
UACGAGCAAUAUUACGUGCA	-3.16 ± 0.19	-1.32 ± 0.13
UACGAGCAAUAUUACGUUUU	-3.66 ± 0.17	-2.4 ± 0.16
UACUAGCAAUAUUACGAAUU	-4.02 ± 0.42	-2.32 ± 0.25
UACUAGCAAUAUUACGACCG	-0.634 ± 0.13	0.287 ± 0.16
UACUAGCAAUAUUACGAGUC	-2.67 ± 0.31	-1.09 ± 0.14
UACUAGCAAUAUUACGAGUG	-1.07 ± 0.083	-0.536 ± 0.1
UACUAGCAAUAUUACGAGUU	-2.16 ± 0.11	-0.685 ± 0.1
UACUAGCAAUAUUACGCACC	-1.86 ± 0.2	-1.22 ± 0.26
UACUAGCAAUAUUACGCACU	-0.822 ± 0.068	0.229 ± 0.079
